# Laboratory results from publication PMC4259310.
# Experiments:
# [1] = molecular target: Snake Adenovirus 1 (SnAdV-1) fibre head domain, construct 234-345, native (Snake Adenovirus 1 (SnAdV-1)); test: crystal structure
# [2] = molecular target: Snake Adenovirus 1 (SnAdV-1) fibre protein construct 171-345 (Snake Adenovirus 1 (SnAdV-1)); test: crystal structure
substance,measurement,setting,value
"Snake Adenovirus 1 (SnAdV-1) fibre head domain, construct 234-345, native (domain or fragment)",stoichiometry N,[1],3
Snake Adenovirus 1 (SnAdV-1) fibre protein construct 171-345 (domain or fragment),stoichiometry N,[2],3
